Assay in all cases: SPR ProteOn, SA immobilized, pH 7.4
The target in assay [1] is T1, dog serum albumin (Abcam 119814) (dog, UniProt P49822 25-608).
T1 construct: Bought protein; also called dog SA

For assay [2], the target named is T2, guinea pig serum albumin (Gentaur GPSA62) (guinea pig).
T2 construct: Bought protein; also called guinea pig SA

Assay [3] addresses T3, cynomolgus monkey serum albumin (generated in-house) (cynomolgus monkey, UniProt A2V9Z4 25-608, limits assumed).
T3 construct: also called cyno SA

The target of assay [4] is T4, human serum albumin (Sigma-Aldrich A3782) (human, UniProt P02768 25-609).
T4 construct: Bought protein; also called HSA; human SA

For assay [5], the target named is T5, rat serum albumin (Sigma-Aldrich A4538) (rat, UniProt P02770 25-608).
T5 construct: Bought protein; also called rat SA

Assay [6] deals with T6, pig serum albumin (Sigma-Aldrich A4414) (pig, UniProt P08835 25-607).
T6 construct: Bought protein; also called pig SA

Assay [7] addresses T7, mouse serum albumin (Albumin Bioscience 2601) (mouse, UniProt P07724 25-608).
T7 construct: Bought protein; also called mouse SA

The term koff denotes the first-order rate constant of dissociation. As usually defined, the kon is the second-order rate constant of association. By Kd is commonly meant the concentration at which binding is half-saturated.

B1: serum albumin binder of SEQ ID NO:19 (invention), T023500029 (VHH)
VHH: EVQLVESGGGVVQPGDSLRLSCAASGGTFSTYVMGWFRQAPGKEREFVSAISQNSIHTYYANSVKGRFTISRDNSKNTVYLQLNSLRPEDTALYYCAASRFTSWYTADYEYDYWGQGTLVTVSS
notes: No tag is mentioned there
Turning to B1, the koff turned out to be 0.00084 s⁻¹ in assay [1]; 0.00031 s⁻¹ in assay [2]; 0.00023 s⁻¹ in assay [3]; 0.00027 s⁻¹ in assay [4]; 8e-05 s⁻¹ in assay [5]; 0.0046 s⁻¹ in assay [6]. The same molecule had a koff in assay [7] of 0.00025 s⁻¹. Also, the kon in assay [1] amounted to 720000 M⁻¹ s⁻¹; in assay [2], 1e+06 M⁻¹ s⁻¹; in assay [3] it was 520000 M⁻¹ s⁻¹; in assay [4], 610000 M⁻¹ s⁻¹; in assay [5], 1.2e+06 M⁻¹ s⁻¹; in assay [6] it was 100000 M⁻¹ s⁻¹. The molecule also yielded a kon in assay [7] of 910000 M⁻¹ s⁻¹. The affinity in assay [2], expressed as Kd, was 0.3 nM.
